One data set relates to wheat D1 protease. Nature of the data set: In vitro high-throughput assay with LF-1 thylakoid membrane fragments containing pre-D1, detecting the mature D1 enzyme product. The data set is classed as biochemical. The following applies: 7 mM Z-LDLA-CMK; D1 protease pre-incubated with it for 1 h at pH 7.0; same assay without inhibitor 0.141 OD; without D1P 0.023 OD. From the text: The assay was capable of detecting both type of products. Because this assay used isolated thylakoid membrane containing the D1 pre-protein substrate the assay could be run at a pH similar to that found in the whole plant.
The PSII-enriched thylakoid membrane fragment was isolated from Scenedesmus LF-1 mutant cells using a mild TRITON X-100-treatment as follows:
Scenedesmus cells were broken in a “bead-beater” (Biospec Products, Bartlesville, Okla.) in an ice-water bath with 1-mm diameter glass beads using 10 bursts of 45 sec each. […]
When using the type 2 HRP conjugated primary antibody […] of colorimetric substrate, TMB (Kirkgaard & Perry Laboratories, Inc., Gaithersburg, Md.) or fluorescent substrate, N-acetyl-3,7-dihydroxyphenoxazine (A6550, Molecular Probes, Inc., Eugene, Oreg.) or chemiluminescence substrate, BM Chemiluminescence ELISA Reagent (Boehringer Mannheim Corp., Indianapolis, Ind.) was added to each well. […] Next the substrate was transfered to a regular plastic 96-well microtiter plate using the manifold and vacuum and then read for absorption or fluorescence or chmiluminescence intensity. […]

Data set [1] concerns the target D1 pre-protein (unprocessed D1 polypeptide) of the Scenedesmus obliquus LF-1 mutant, in PSII core complexes or thylakoid membrane fragments.
In data set [2] the target is T1, internally quenched fluorescent substrate Ac-NAHN(K-Dnp)PLDLAAVE(K-Mca)PSING-OH.
T1 chain: AHNKPLDLAAVEKPSING

Where a SMILES comes first, the peptide text is derived from it. The star is where a group is joined. Cbz = O=C(OCc1ccccc1)*; CH2Cl = ClC*

4 molecules from patent publication US6350573B1, “Methods for identifying herbicidal agents that inhibit D1 protease” (E. I. du Pont de Nemours and Company, priority 1998, dated 2002) can be followed below.

For `CC(C)C[C@H](NC(=O)OCc1ccccc1)C(=O)N[C@@H](CC(=O)O)C(=O)N[C@@H](CC(C)C)C(=O)N[C@@H](C)C(=O)CCl` [Z-LDLA-CMK, Z-Leu-Asp-Leu-Ala-CH2Cl] (Cbz-LDLA-CH2Cl), the “Type2 AB and TMB, Absorption change, With D1P” value with wheat D1 protease turned out to be 0.081 OD.

B1: wheat D1 protease purified from wheat leaves (Triticum aestivum, var. Fidel) (protein)
chain: LTEENLLFLEAWRAVDRAYYDKSFNGQSWFRYRERALRDDPMNTRQETYAAIKKMLATLDDPFTRLLEPEKFKSLRSGTQGALTGVGLSIGYPLALKGSPAGLSVMSAAPGGPAEKAGIVSGDVILAIDDTSAQDMDIYDAADRLQGPEGSSIDLTILSGADTRHVVLKRERYTLNPVRSRMCEIPGSEDSSKIGYIKLTTFNQNAAGSVKEAIKKLREKNVKAFVLDLRNNSGGLFPEGIEIAKIWMDKGVIVYICDSRGVRDIYEADGASTIAASEPLVVLVNKGTASASEILAGALKDNKRAVVYGEPTYGKGKIQSVFALSDGSGLAVTVARYETPAHTDIDKVGVTPDRPLPASFPTDEDGFCSCLRDPASCNLNAARLFVRS
In the case of B1, in data set [1], the Type1 AB and ATTOPHOS (Fluorescence intensity), With D1P was determined as 1070 RU; the Type1 AB and PNP (Absorbance OD 450-650), With D1P worked out at 0.365 OD; the Type2 AB and A6550 (Fluorescence intensity), With D1P was 263 RU; the Type2 AB and BM (Chemiluminescence intensity), With D1P stood at 33 RU. In data set [1], the Type2 AB and TMB (Absorbance at OD 650-450), With D1P turned out to be 0.141 OD; the “fluorescamine fluorescence of the released C-terminal D1-tail, Well with D1 protease” value was 515 ± 10 relative units. Moreover, the “fluorescence intensity of the internally quenched substrate (excitation 320 nm, emission 409 nm)” value in data set [2] is given as “samples containing active enzyme were measured at 3000 fluorescence units”.

B2: recombinant wheat D1 protease expressed in E. coli from pET-32a(+) (thioredoxin-D1 protease fusion, refolded) (protein)
chain: B1 chain
B2: the “specific activity in the microtiter plate ELISA assay” value in data set [1] is “The specific activity of the recombinant enzyme, expressed in relative units, is close to that of the natural enzyme isolated from wheat leaves”.

B3: D1 protease from Scenedesmus obliquus (protein)
chain: VTSEQLLFLEAWRAVDRAYVDKSFNGQSWFKLRETYLKKEPMDRRAQTYDAIRKLLAVLDDPFTRFLEPSRLAALRRGTAGSVTGVGLEITYDGGSGKDVVVLTPAPGGPAEKAGARAGDVIVTVDGTAVKGLSLYDVSDLLQGEADSQVEVVLHAPGAPSNTRTLQLTRQKVTINPVTFTTCSNVAAAALPPGAAKQQLGYVRLATFNSNTTAAAQQAFTELSKQGVAGLVLDIRNNGGGLFPAGVNVARMLVDRGDLVLIADSQGIRDIYSADGNSIDSATPLVVLVNRGTASASEVLAGALKDSKRGLIAGERTFGKGLIQTVVDLSDGSGVAVTVARYQTPAGVDINKIGVSPDVQLDPEVLPTDLEGVCRVLGSDAAPRLFG
As to B3, the “microtiter plate ELISA of D1 protease activity (color reaction, percent of pre-D1 cleaved)” value in data set [1] was “the intensity of the color reaction is shown to be proportional to enzyme concentration up to approximately 20% of pre-D1 cleaved”.
